According to the nanobody polyreactivity screen of Harvey et al. (2022):

Assay: yeast display, Sf9 membrane polyspecificity reagent, FACS + sequencing; frameworks hold sequencing errors
Summary of the method: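 Nanobodies came from a synthetic yeast display library in Saccharomyces cerevisiae BJ5465, induced with galactose for 36–48 hours and stained for 1 hour at 4 °C with 10% biotinylated, detergent-solubilized Sf9 membrane reagent. Cells were enriched on streptavidin microbeads and then FACS-sorted, with low and high (top ~1%) gates set on anti-HA fluorescence for expression and streptavidin fluorescence for reagent binding. Each polyreactivity label reflects the gate a clone came from. Genes were amplified by colony PCR, sequenced by MiSeq 2 × 250 and filtered by CDR length.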

Sequence | polyreactivity (PSR sort gate)
QVQREESGGGLVQAGGSLRLSCAASGRIMNINAMGWYRPATGKERERVAAITWRGGRTFYADSVKGRFTISRDNAKNTVYLQMNSLKAEDTAVYYCAASSNSWYPTGYYWGQGTQVTVSS | high polyreactivity
QVQLVESGGGLVQAGGSLRLSCAASGRIFRYNAMGWYRQAPGKERELVAAISWGGGSTYYADSVKGRFTISRDNAKNTVYLQMNSLKPEDTAVYYCAVTSGSSFRMGYWGQGTQVTVSS | high polyreactivity
QVQLVESGGGLVQAGGSLRLSCAASGLIFSSNAMGWYRQAPGKERELVAAISRRGANTYYADSVKGRFTISRDNAKNTVYLQMNSLKPQDTAVYYCAKRYVGRGTSYQDYYWGQGTQVTVSS | high polyreactivity
QVQLVESGGGLVQAGGSLRLSCAASGITFSDYAMGWYRQAPGKEWELVAAISARGGSTYYADSVKGRFTISRDNAKNTVYLQMNSLKPEDTAVYYCAADKRTPYYSRAGMDYWGQGTQVTVSS | low polyreactivity
QVQLVESGGGLVQAGGSLRLSCAASGRIFPFYAMGWYRQAPGKERELVAAITSSGGRTYYADSVKGRFTISRDNAKNTVYLQMNSLKPEDTAVYYCAAGHGGYYRYFSQRDYWGQGTQVTVSS | low polyreactivity
QVQLVESGGGLVQAGGSLRLSCAASGRIFSRNAMGWYRQAPGKERELVAAISRRGGSTSYADSVKGRFTISRDNAMNTVYLQMNSLKPEDTAVYYCAAEDEYYCTRGYWYSRYDYWGQGTQVTVSS | high polyreactivity
QVQLVESGGGLVQAGGSLRLSCAASGSPFTRYTMGWYRHAPGKERELVASITRTGSTNYADSVKGRFTISRDNAKNTLYFQMNSLKPEDTAVYYCAAGRYYSYRFSFGYWGQGTQVTVSS | high polyreactivity
QVQLVESGGGLVQAGGSLRLSCADSGFTFPSYTMGWYRQAPGKERDLDASIRVSGGRTYYADSVKGRFTISRDNAKNTVYLQMNSLKPEDTAVYYCAADYMTWWGGRYDYWGQGTQVTVSS | high polyreactivity
QVQLVESGGGLVEAGGSLRLSCAASGRIFHANAMGWYRQAPGKERELVAGISRHGGRTYYADSVKGRFTMSRDNAKNTVYLQMNSLNPEDTAVYYCNALDWQYKELDYYWGQGTQVTVSS | high polyreactivity
QVQLVESGGGLVQAGGSLRLSCAASGITFDSYAMGWNRQAPGKERELVAAISYSGGSTYYADSVKGRFTISRDNAKNTVYLQMNSLNPEDTAVYFCAAGSDDDYDYWGQGTQVTVSS | low polyreactivity
QVHLVESGGGLVQAGGSLRLSCAASAFIFNRNAMGGYRQAHGKERELVAAISRSGGRTYYADSVKGRFTISRDHAKNTVYIQMNSLKPEDTAVYYCATEGYHGEFDYWGQGTQVTVSS | high polyreactivity
QVQLVESGGGLVQAGGSLRLSSAASGSIFYRYAMGWYRQAPGKERELVAAITQSTDSTYYADSVKGRFTISRDNAKYNVYLQMNSLKPEDTAVYYCAAYLVYYRPYAYGYWGQGSQVTVSS | low polyreactivity
QVQLVESGGGLVQAGGSLRLSCAASGSTFDKNAMGWYRQAPGKERELVDAISIGVSTNYADSVKGRFTISRDNAKNTVYLQMNSLKPEDTAVYYCAADLFFGAETVYYDKFDYWGQGTQVTVSS | low polyreactivity
QVQLVESGGGLVQAGGSLRLSCAASGSIFVTYAMGWYRQAPGKERELVATITSSGGSTYYADSVKGRFTISRDNAKNTVYLQMNSLKPEDTAVYYCATDFGASVWDYFRRVYYWFGYWGQGTQVTVSS | low polyreactivity
QVQLVESGGGLVQAGGSLRLSCAASGRTFVYNAMGWYRQAPGKERELVAAISFGGGNTYYADSVKGRFTISRDNAKNTVYLQMNSLKPEYTAVYYCAARAGAGPLDYDYWGQGTQVTVSS | low polyreactivity
QVQLVESGGGLVQAGGSLRLSCAASGSIFLVYAMGWYRQAPGKERELVAGITSDDSTNYADSVKGRFTISRDNAKNTVYLQINRLKPEDTAVYYCAKDSLGLYIVDLGYWGQGTQVTVSS | low polyreactivity

Sequence | polyreactivity (PSR sort gate)
QVQLVESGGGLVQAGGSLRLSCAASGRTFIPYAMGWYRQAPGKERELVATIRRGGSTYYADSVKGSFTISRDNAKNTVYLQMNSLKPEDTAVYYCAATRYSFGPRRVDYWGQGTQVSVSS | high polyreactivity
QVQLEESGGGLVQAGGSLRLSCAASGRTFYHYAMGWYRQAPGKERELVAGITDGTITTDADSVKGRFTISRDNAKNTVYLQMNSLKPEDTAVYYCNVGYSDWWRSWAMDYWGQGTQVTVSS | high polyreactivity
QVQLVESGGGLVQAGGSLRLSCAASGGNFWYNTMGWYRQAPWKERELVAAISDSGGRTSYADSVKGRVTISRDNANHTVYLQMNSLKPEDTAVYYCNVDYVVSRGFIYRVDYWGQGTQVTVSS | low polyreactivity
QVQLVESGGGLVQAGGSLRLSCAASGSTFWYYAMGWYRPAPGKERELVAAITISGGSTYYADSVKGRFTISRDNAKNTVYLQMNSLKPEDTAVYYCATDDTHRVGWFDYWGQGTQVTVSS | low polyreactivity
QVQHVESGGGLVQAGRSLRLSCAATGRTFGSNAMGWYRQAPGKERELVAAISLRGGRTYYADSVKGRFTISRDNAKNTVYLQMNSLKPEDTAVYYCNAVHYLYGARSRLTYDYWGQGTQVTVSS | high polyreactivity
QVQLVESGGGLVQAGGSLRLSCAASGRTFDFYVMGWYRHAPGKERELVAAISSGGSTNYADSVKGRFTISRDNAKYTVYLQMNSLKPEDTAVYYCAADPSGDYWGQGTQVTVSS | low polyreactivity
QVQLVESGGGLVQAGGSLRLSCAASGRIFAFYAMGWSRPAPGKERELVAAITSGGSTKYADSVKGRFTISRDNAKNTVYLQMNSLKPEDTAVYYCAAQYRYQRYSYAMEYWGQCTQVTVSS | high polyreactivity
QVQLVESGGGLDHAGGSLRLSCADSGRIFNYNAMGWYIQAPGKESELVAAISWDGGSTYYADSVKGRFTISRDNAKNTVYLQINSLKPEDSAVYYCAAQYIWSSYRYYYWGQGTQVTVSS | high polyreactivity
QVQLVESGGCLVQAGGSLRLSCAASGSIFWSYSMGWYRQAPGKERELVAAISSGGSTNYADSVKGRFTISRDNAKNTVYLQMNSLKPEDTAVYYCSARFYTTSVRRKRYDYWGQGTQVTVSS | high polyreactivity
QVQLVESRRGLVQAGGSLRLSCAGSGRIVSDYAMGWYRQAPGKERELVATITSGDSTNYADSVKGRFTISRDNAKNTVYLQMNSQKPEDTAVYYCNADRFADYDYWGQGTQVTVSS | low polyreactivity
QVQLVESGGGVVQAGGSLRLSCAASGYIFFANAMGWYRQAPGKERELVAAISSDGRTYYADSVKGRFTISRDNANNTVYLQMNSLKPEDTAVYYSADYFSGLTYGYYVAGYDYWGQGTQVTVSS | low polyreactivity
QVQLVESGGGLVQAGGSLRLSCAASGSIFLHNAMGWYRQAPGTERELVAGITSSGTSTYYADSVKGRFTISRDIAKNTVYLQMNSLKPEDTAVYYCAAYRYGSRGGYWGQGTHVTVSS | high polyreactivity
QVQLVESGGGLVQAGGSLRLSCAATGSIFNKYAMGWYRQAPGTEREFVAAITQGGGRTYYADSVKGRFTISRDNAKNTVYLQMNSLKPEDTAVYYCAKPAYHSPDYDYWGQGTQVTVSS | high polyreactivity
QVQLVESGGGLVQAGGSLRLSCAASGRNFPDNTMGWYRHAPGKERELVATIAWIGASTYYADSEKGRFTISRDNAKNTVYLQMNSLKPEDTAVDYCAGTTSHRWYGFNSKYDFDYWGQGTQVTVSS | low polyreactivity
QVQLVESGAGLVQEGGSLRLSCAASGRIFQTYTMGWYRQAPGKERELVAAISASGGRTYYADSVKGRFTISRDNAKNTVYLQMNSLKPEDTAVYYCAADIRGYDYWGQGTQVTVSS | high polyreactivity
QVQLVESGGGLVQAGGSLRLSCAASGSIFSQYAMGWYRQAPGKERELVAAISSSGDSTNYADSVKGRFTISRDNAKNTVYLQMNSLKPEDTAVYYCNADTYWYRDSRYDYWGQGTQVTVSS | low polyreactivity
